The results in this text go back to PMC4881898, “CD14 Is a Co-Receptor for TLR4 in the S100A9-Induced Pro-Inflammatory Response in Monocytes” (PLoS ONE, 2016).

In this experiment the target is T1, recombinant human CD14 (human, UniProt P08571 20-345).
T1 construct: CD14, human, recombinant soluble protein from CHO cells; Check this against the vendor data sheet; source: bought: R&D Systems (cat no 383-CD-050/CF), derived from CHO cells
T1 sequence (looked up): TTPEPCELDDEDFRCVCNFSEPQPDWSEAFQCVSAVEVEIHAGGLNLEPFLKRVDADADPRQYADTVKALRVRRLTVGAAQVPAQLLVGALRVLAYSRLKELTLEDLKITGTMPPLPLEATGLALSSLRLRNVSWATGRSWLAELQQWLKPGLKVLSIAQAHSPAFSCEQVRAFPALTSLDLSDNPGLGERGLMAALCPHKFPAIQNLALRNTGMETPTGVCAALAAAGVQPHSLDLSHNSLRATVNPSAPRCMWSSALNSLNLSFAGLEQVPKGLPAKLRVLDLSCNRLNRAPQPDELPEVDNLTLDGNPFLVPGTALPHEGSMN
Nature of the experiment: SPR; Biacore 3000; S100A8 and S100A9 immobilised in separate flow cells on a CM5 chip by amine coupling, to the same level; CD14 injected at 50 to 800 nM for 2 min at 30 ul/min in HBS-P (10 mM HEPES, 0.15 M NaCl, pH 7.4, 0.005% P20) with 1 mM Ca2+ and 20 uM Zn2+; regeneration with 3 mM EDTA; sensorgrams fit to a 1:1 model. As to conditions: both partners purified.

B1: recombinant human S100A9 (natural protein, UniProt P06702 1-114, looked up)
chain: MTCKMSQLERNIETIINTFHQYSVKLGHPDTLNQGEFKELVRKDLQNFLKKENKNEKVIEHIMEDLDTNADKQLSFEEFIMLMARLTWASHEKMHEGDEGPGHHHKPGLGEGTP
notes: S100A9, human, recombinant; The discussion says the recombinant huS100A9 was produced in E. coli; Amine-coupled to the CM5 chip in the SPR experiment; also called huS100A9; source: recombinant, produced at Active Biotech AB, Lund, Sweden
The Kd is a measure of binding affinity in units of concentration. For the molecule B1, the equilibrium dissociation constant (Kd) was 100 to 200 nM.
